Reference: patent publication US20220281931A1 (published 2022)

B1: SIAH1^SBD (tag-cleaved) (enzyme)
chain: VANSVLFPCKYASSGCEITLPHTEKADHEELCEFRPYSCPCPGASCKWQGSLDAVMPHLMHQHKSITTLQGEDIVFLATDINLPGAVDWVMMQSCFGFHFMLVLEKQEKYDGHQQFFAIVQLIGTRKQAENFAYRLELNGHRRRLTWEATPRSIHEGIATAIMNSDCLVFDTSIAQLFAENGNLGINVTISMC

Experiments:
BCL6^5-360 (ITC) = BCL6^5-360 (ITC) (UniProt P41182 5-360); experiment: ITC; also printed as Kd = 1.6 uM
SIAH1^SBD (tag-cleaved) = biological target: B1; experiment: ITC

Row | Kd (BCL6^5-360 (ITC)) | Kd (SIAH1^SBD (tag-cleaved)) | Binder
1 | 1.57 µM |  | B1
2 |  | 6.3 µM | EYSRPTLEVSPNVCHSNIYS [BCL6^241-260 peptide]
